Data from patent CN114989300A (BIO THERA SOLUTIONS LTD, dated 2022).

T1: 人TIGIT (TIGIT-Jurkat细胞表面) (human, UniProt Q495A1 22-244)
T1 construct: whole, on cells
T1 sequence (looked up): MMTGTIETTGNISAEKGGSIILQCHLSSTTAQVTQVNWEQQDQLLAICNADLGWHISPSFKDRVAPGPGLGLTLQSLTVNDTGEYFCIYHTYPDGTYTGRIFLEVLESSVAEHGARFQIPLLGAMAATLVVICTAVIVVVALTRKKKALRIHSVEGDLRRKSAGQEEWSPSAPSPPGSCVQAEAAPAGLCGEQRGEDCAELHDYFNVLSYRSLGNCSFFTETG

B1: 参照抗体Tiragolumab (antibody, V domains shown)
VH: EVQLQQSGPGLVKPSQTLSLTCAISGDSVSSNSAAWNWIRQSPSRGLEWLGKTYYRFKWYSDYAVSVKGRITINPDTSKNQFSLQLNSVTPEDTAVFYCTRESTTYDLLAGPFDYWGQGTLVTVSS
VL: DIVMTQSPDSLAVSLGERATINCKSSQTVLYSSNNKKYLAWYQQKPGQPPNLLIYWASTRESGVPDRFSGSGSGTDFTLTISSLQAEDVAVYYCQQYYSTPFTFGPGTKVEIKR
B2: 抗体h10D8OF (antibody, human IgG1, kappa, V domains shown)
VH: QVQLVESGGGVVQPGRSLRLDCKASGFTFSSYGMSWVRQAPGKGLELVATINSNGGSTYYPDSVKGRFTISRDNSKNTLFLQMNSLRAEDTAVYYCARLGTGTLGFAYWGQGTLVTVSS
VL: EIVMTQSPATLSLSPGERATLSCKASQDVKTAVSWYQQKPGQAPRLLIYWASTRATGIPARFSGSGSGTDYTLTISSLEPEDFAVYYCQQHYSTPWTFGQGTKVEIKR
notes: also called 抗TIGIT抗体
B3: 抗体h10D8OFKF (antibody, human IgG1, kappa, V domains shown)
VH: B2 VH
VL: B2 VL
modifications: fucosylation level about 0 (expressed in alpha-(1,6)-fucosyltransferase knockout CHO cells)
notes: also called 抗TIGIT抗体

Target: T1, 人TIGIT (TIGIT-Jurkat细胞表面)
Assay: flow cytometry; blocking of 12.5 nM biotinylated PVR-Fc binding to TIGIT-Jurkat cells

Row | Binder | IC50 [pM]
1 | B1 | 2820
2 | B2 | 441
3 | B3 | 742
